Tests used:
[1] = target: T1, cIAP1 (Homo sapiens, UniProt Q13490); experiment: In-vitro substrate ubiquitination assay, cIAP1; assay type: biochemical; details: recombinant cIAP1, E2 UbCH5b or Ubc13/Uev1a
Protocol: FIG. 9 SIVA2 mediates ubquitination of both TRAF2 and cIAP1. (A) cIAP-1 is required for SIVA2-mediated TRAF2 ubiquitination in cells. HEK293T cells were transfected with cIAP1 siRNA and, 24 h later, with the other plasmids as indicated. The extent of ubiquitination of the TRAF2 immunoprecipitated from the lysates of these cells, as well as the cellular levels of the endogenous cIAP1 and cIAP2 and the transfected ubiquitin, were determined by western blot analyses. (B) SIVA2, but not SIVA1, enhances K48-linked polyubiquitination of TRAF2 in cells. HEK293T cells grown in 90-mm plates were transfected by the calcium phosphate method with 4 μg of FLAG-TRAF2 (C34A), together with […] of HA-ubiquitin mutant plasmids and 6 μg of HIS-SIVA2 or HIS-SIVA2 (C73A) or HIS-SIVA1. The cells were lysed 24 h after transfection and TRAF2 was precipitated and analyzed as indicated. Wild-type SIVA2 and SIVA1, as well as SIVA2 (C73A) mutant, co-precipitated with TRAF2 (bottom panel). […]
In-vitro ubiquitination. […] Supernatants of the reaction were analyzed for free polyubiquitin chains formed in solution. For assay of self-ubiquitination of SIVA2 the glutathione beads were washed three times with a buffer containing 20 mM HEPES pH 7.6, 250 mM NaCl, 1 mM DTT, 1% Triton X-100 and Complete Protease Inhibitor Cocktail, boiled with LDS sample buffer (Invitrogen), and analyzed by western blotting. […]

[2] = target: T1, cIAP1; experiment: In-vitro protein-binding assay, cIAP1; details: recombinant cIAP1 incubated with GST-SIVA2
Protocol: (§1) (A) Transfected SIVA2 binds to endogenous TRAF2. FLAG-SIVA2 or HIS-SIVA2 (control) was transfected into HEK293T cells. SIVA2 was immunoprecipitated using anti-FLAG M2 beads and the co-precipitated cellular TRAF2 was assayed by western blotting. The total cellular level of TRAF2 is shown at the bottom. (B) SIVA2 binds TRAF2 inducibly. Treatment of the cells EcR293-CD27-SIVA2 with ponasterone for 2 h to induce SIVA2, and treated with CD70 as indicated was followed by immunoprecipitation of TRAF2. […] FLAG-tagged TRAF2 was immunoprecipitated from transfected HEK293T cells with anti-FLAG M2 beads, eluted from the beads using FLAG peptide and incubated with GST-SIVA2 or its mutant, and then subjected to immunoprecipitation and western blotting as indicated. […] Left panel: Binding in vitro. Recombinant cIAP1 was incubated with GST-SIVA2 or its mutant. Right and bottom panels depict binding in transfected HEK293T cells. Right panel: Cells were transfected with HIS-SIVA2, HIS-SIVA2 (1-58), or FLAG-TRAF2. After 28 h the endogenous cIAP1 was immunoprecipitated. MG132 was applied for the last 6 h of incubation. Bottom panel: Cells were transfected with FLAG-SIVA2, FLAG-SIVA2 (1-58) or, as a specificity control, FLAG-GST-BR3-ICD* (in which the BAFF receptor intracellular domain is mutated at its TRAF3-binding region (PVPAT>AVAAA)). […] N/A, not analyzed. […]

[3] = target: T2, TRAF2 (Homo sapiens, UniProt Q12933); experiment: In-vitro protein-binding assay, TRAF2; details: FLAG-TRAF2 incubated with GST-SIVA2
T2 construct: made in house; host or cells: HEK293T (FLAG-TRAF2); bacteria, pGEX2T (GST-SIVA2)
T2 sequence (Q12933 1-501): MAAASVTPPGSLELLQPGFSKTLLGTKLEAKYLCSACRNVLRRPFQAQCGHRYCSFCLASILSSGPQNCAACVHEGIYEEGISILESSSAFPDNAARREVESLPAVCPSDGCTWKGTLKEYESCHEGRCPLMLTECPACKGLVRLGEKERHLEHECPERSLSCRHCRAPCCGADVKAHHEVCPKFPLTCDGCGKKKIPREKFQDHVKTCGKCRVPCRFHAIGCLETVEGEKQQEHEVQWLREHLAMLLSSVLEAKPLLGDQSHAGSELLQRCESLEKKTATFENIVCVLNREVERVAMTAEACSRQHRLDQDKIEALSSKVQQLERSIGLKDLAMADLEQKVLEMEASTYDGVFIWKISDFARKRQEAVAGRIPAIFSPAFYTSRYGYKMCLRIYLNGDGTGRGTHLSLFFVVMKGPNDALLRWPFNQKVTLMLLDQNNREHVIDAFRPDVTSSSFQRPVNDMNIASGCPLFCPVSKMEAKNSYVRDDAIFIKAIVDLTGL
Protocol: as §1

T1 sequence (Q13490 whole entry, species assumed): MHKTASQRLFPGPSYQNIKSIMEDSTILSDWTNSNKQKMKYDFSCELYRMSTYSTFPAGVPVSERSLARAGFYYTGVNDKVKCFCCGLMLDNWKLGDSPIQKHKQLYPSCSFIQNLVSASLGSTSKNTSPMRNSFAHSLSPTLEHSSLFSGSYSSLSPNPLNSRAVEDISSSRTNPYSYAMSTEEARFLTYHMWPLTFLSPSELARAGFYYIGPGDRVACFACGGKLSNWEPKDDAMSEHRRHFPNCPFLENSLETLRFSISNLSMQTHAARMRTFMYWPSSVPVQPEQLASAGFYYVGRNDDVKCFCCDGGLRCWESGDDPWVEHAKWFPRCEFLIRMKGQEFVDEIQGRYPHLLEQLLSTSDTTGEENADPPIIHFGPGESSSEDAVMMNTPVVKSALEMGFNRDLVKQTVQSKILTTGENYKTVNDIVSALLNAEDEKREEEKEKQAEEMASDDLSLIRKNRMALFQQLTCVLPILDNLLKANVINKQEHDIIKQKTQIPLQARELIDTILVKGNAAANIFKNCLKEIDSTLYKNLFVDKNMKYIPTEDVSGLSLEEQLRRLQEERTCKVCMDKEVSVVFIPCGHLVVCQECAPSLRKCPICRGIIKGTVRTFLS

B1: SIVA2: short splice variant of SIVA, E3 ligase (NM—021709, SEQ ID NO:11); recombinant GST fusion in in-vitro tests (protein)
chain: MPKRSCPFADVAPLQLKVRVSQRELSRGVCAERYSQEVFDPSGVASIACSSCVRAVDGKAVCGQCERALCGQCVRTCWGCGSVACTLCGLVDCSDMYEKVLCTSCAMFET
modifications: left off: a dimerising Fc or GST; large carriers; small tags and cut ends
notes: recombinant GST fusion in in-vitro tests
For B1, which “ubiquitination of cIAP1” value [1] is on record?
Its value is “effectively ubiquitinated”.

And the “binding of SIVA2 to cIAP1” value [2]?
Its value is “binds at its N-terminus to cIAP1”.

What about the “binding of SIVA2 to TRAF2 in vitro” value [3] of the same molecule?
Its value is “binds TRAF2 in vitro”.

From patent US20110293593A1, “SIVA 2 STABILIZATION” (YEDA RESEARCH AND DEVELOPMENT CO., LTD., priority 2008, published 2011)
